Source: PMC7840129, “Structural basis for heme-dependent NCoR binding to the transcriptional repressor REV-ERBβ” (Science Advances, 2021)

Key:
REV-ERBβ LBD = test: DSSO chemical cross-linking, SDS-PAGE; format: binding, human; settings: 4 μM LBD ± heme with 2 μM RID, 600 μM DSSO, 25°C, 45 min
Method: To further support this stoichiometry, we performed chemical cross-linking analysis of apo or heme-bound LBD ± RID using DSSO (disuccinimidyl sulfoxide), a cross-linker that cross-links lysine residues as well as serine, threonine, and tyrosine residues (fig. S9, A and B).
(§1) Apo or heme-bound REV-ERBβ LBD and NCoR RID protein samples were cross-linked in Hepes gel filtration buffer [25 mM Hepes (pH 7.5) at room temperature, 50 mM NaCl, and 0.5 mM TCEP]. Non–cross-linked negative controls were generated using the same procedure without the addition of DSSO (Thermo Fisher Scientific). Samples included 4 μM apo LBD with or without 2 μM RID and 4 μM heme-bound LBD with or without 2 μM RID; complexes were preincubated 1 hour on ice. Reactions were initiated by spiking DSSO in DMSO at a final concentration of 600 μM in 50-μl solutions. The final molar ratio of cross-linker:protein was 100:1. The reactions were incubated at 25°C for 45 min before being quenched by the addition of tris (pH 8.0) to a final concentration of 50 mM. Each cross-link reaction was done in triplicate, and the reaction replicates were pooled after quenching. Samples (10 μl) were loaded for SDS-PAGE analysis with Coomassie staining to confirm the presence of cross-linked protein. […]

REV-ERBβ LBD / NCoR RID = test: Chemical cross-linking mass spectrometry (XL-MS); format: binding; settings: apo LBD and heme-bound LBD ± RID; DSSO
Method: as §1, with “protein. The remaining cross-linked and non–cross-linked samples were then acetone-precipitated at −20°C overnight, and the protein was pelleted by centrifugation at 16,000 relative centrifugal force (rcf) for 5 min at 4°C. After decanting, the pellets were dried for 15 min at room temperature before being resuspended in 12.5 μl of resuspension buffer [50 mM ammonium bicarbonate and 8 M urea (pH 8.0)].” for “protein.”

B1: WT RID: mouse NCoR RID (residues 1942 to 2208 in the X50 splice variant) (protein, UniProt Q60974 1942-2208, looked up, fragment)
chain: TITAANFIDVIITRQIASDKDARERGSQSSDSSSSLSSHRYETASDAIEVISPASSPAPPQEKPQAYQPDMVKANQAENESTRQYEGPLHHYRSQQESPSPQQQPPLPPSSQSEGMGQVPRTHRLITLADHICQIITQDFARNQVPSQASTSTFQTSPSALSSTPVRTKTSSRYSPESQSQTVLHPRPGPRVSPENLVDKSRGSRPGKSPERSHIPSEPYEPISPPQGPAVHEKQDSMLLLSQRGVDPAEQRSDSRSPGSISYLPSF
modifications: X50 splice variant
LBD:RID complexes by cross-linking SDS-PAGE (REV-ERBβ LBD): two bands with molecular weights consistent with 1:1 and 2:1 LBD:RID complexes | effect of RID on LBD-LBD cross-links (REV-ERBβ LBD / NCoR RID): enhanced LBD-LBD cross-links
